The text below walks through data of publication PMC6219519.

pKd: −log10 of the molar value.

Usually pKd stands for −log10 of the Kd, conventionally taken in molar units.

Experiment [1] has as its target (H3-H4)2 tetramer (wild type Xenopus laevis recombinant histones) (Xenopus laevis) (UniProt P84233). The experiment in a line: FRET or BRET; single-molecule FRET with multi-parameter fluorescence detection, dynPDA and trace analysis, global four-state kinetic model; IβIα-wt nucleosomes on 170 bp Widom 601 DNA (dyes on the DNA), 20 pM labelled, total concentration varied with unlabelled nucleosomes; 150 mM NaCl, TE buffer pH 7.5, 1 mM ascorbic acid, 0.01% Nonidet P40; hexasome and tetramer stand on the DNA. For orientation: In BRET a luciferase serves as donor, and the signal depends on an acceptor being close.

The target of experiment [2] is hexasome: (H3-H4)2 tetramer with one H2A-H2B dimer on 170 bp Widom 601 DNA (Xenopus laevis) (UniProt P84233). The experiment is described as above.

On to “H2A-H2B dimer (wild type Xenopus laevis recombinant histones) (from UniProt P06897 2-120; P02281 2-126) (complex)”, for which, in experiment [1], the pKd is less than 11.70 and the relaxation time tR of hexasome/tetrasome exchange (estimated for [H2A-H2B] ≈10 pM) was greater than 10000 s. Also, in experiment [2], the pKd is 10.41 and the relaxation time tR of octasome/hexasome exchange (estimated for [H2A-H2B] ≈10 pM) was less than 300 s.
